Measured values from the supplement of paper PMC9732359.
± gives the uncertainty stated by the source.

Assay: protein stability index of a GFP-peptide fusion (yeast GPS) (PSI 1-4); higher = more stable; sorted into four equal gates, so the index is relative within each strain
Details: ubr1∆
In short: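 The protein stability index of a peptide was calculated by multiplying its read frequency in each gate by that gate's number and adding the products. The peptides were tiled 17-residue stretches of yeast proteins, fused downstream of GFP on a Cherry-expressing plasmid and carried in yeast as a pooled library. Mid-log cultures in leucine-free medium were sorted into four equal gates by GFP/Cherry ratio, and each gate's plasmids were PCR-amplified and Illumina-sequenced.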

| Sequence | protein stability index |
| --- | --- |
| LNFYITNVPKAKKRKTL [SIR3] | 1.86 ± 0.071 |
| LNLFSNVLKAPFIKSES [SIR4] | 1.79 ± 0.056 |
| LNLSLHKLDLAKRNLDA [SMC2] | 2.17 ± 0.029 |
| LNSFVNDIFERIATEAS [HTB1] | 2.96 ± 0.061 |
| LNSLKDERSQGEKNFTS [SMC4] | 3.5 ± 0.11 |
| LNSMEKDRISHEVVQDD [PCI8] | 2.41 ± 0.12 |
| LNTVLIADLDTEAEETS [RRP43] | 3.21 ± 0.051 |
| LNVIIDQLAVSPEQIDA [YCS4] | 2.11 ± 0.044 |
| LNVTPSKRPQLGEIPNP [SIR4] | 2.88 ± 0.063 |
| LNVYHYFGENSSISWKN [YJL039C/NUP192] | 3.03 ± 0.1 |
| LNYGVYLNGTLIGSIRF [RET1] | 2.71 ± 0.088 |
| LPDGKNGNLEEEFAYVD [MED6] | 3.32 ± 0.074 |
| LPDPILKNFLSYESLKK [MCD1] | 3.37 ± 0.058 |
| LPGKVNTKEEFAAAPND [SNF5] | 2.85 ± 0.067 |
| LPTNPTLDKPNAEATKE [CSE2] | 2.85 ± 0.066 |
| LPYLSDTCAVSFDAVSD [YJR042W/NUP85] | 2.87 ± 0.05 |
| LQAIDLLENPNCFFDVI [DIS3] | 2.38 ± 0.056 |
| LQALKANDEEAYIKLLD [SNF2] | 2.77 ± 0.2 |
| LQAQDRAHRIGQKNEVR [SNF2] | 3.18 ± 0.063 |
| LQCPMLYVESTGKFVLQ [CSN12] | 2.68 ± 0.1 |
| LQDELHKVSSQSTNLNR [YCS4] | 2.87 ± 0.053 |

| Sequence | protein stability index |
| --- | --- |
| LQEIYQTDAIKSDEAKW [RPN5] | 2.16 ± 0.17 |
| LQIVNQLPANMVHLYSI [RPC17] | 1.79 ± 0.039 |
| LQKAVRGHVLQFEWHQN [SNF2] | 1.35 ± 0.058 |
| LQKEFLPHITQLEGFES [RPB2] | 1.55 ± 0.025 |
| LQLSKTPLSIKIMVAEW [SRB8] | 3 ± 0.12 |
| LQMRLKESEISHNENKM [YIL149C/MLP2] | 3.18 ± 0.09 |
| LQNSERDVELSSDELKV [SMC4] | 3.04 ± 0.12 |
| LQQQTPVTIWLFEQIGI [SME1] | 2 ± 0.042 |
| LQRQQRKSKLNLDNLQK [POP4] | 2.92 ± 0.15 |
| LQSDKNFLDNCLFENDL [ITC1] | 3.01 ± 0.059 |
| LQSLTSKGYVKTQFSWQ [RPS10A] | 3.07 ± 0.065 |
| LRADKLYEKLKQEIMMS [ISW2] | 1.41 ± 0.15 |
| LREVVELPLLSPERFAT [RPT1] | 2.33 ± 0.11 |
| LRKLKKMNNKPERFMVF [RPC53] | 3.18 ± 0.14 |
| LRKNKLGYARFILLDRL [SMC4] | 1.15 ± 0.055 |
| LRLRGGIIEPSLKALAS [RPL40A] | 3.02 ± 0.045 |
| LRNLHMKRMVAQWERSK [SNF12] | 2.88 ± 0.086 |
| LRPGQEISLKAHCILGI [RPC40] | 1.82 ± 0.12 |
| LRQKHEFLEDFDLVRNI [SMC2] | 3.34 ± 0.099 |
| LRQQQQQQDQPEQSEQP [RPN10] | 3.17 ± 0.064 |
| LRQQYEIELKKLPKVYK [SWI1] | 2.75 ± 0.073 |

| Sequence | protein stability index |
| --- | --- |
| LRRLEILVPDLYHLVIM [ECM29] | 1.61 ± 0.032 |
| LSAADIVAQSEVEVSTR [RPO31] | 2.84 ± 0.068 |
| LSCVKNDTISEDILQGI [NUT1] | 3.17 ± 0.076 |
| LSEFGIKKMLHLVWMKG [YCS4] | 3.29 ± 0.17 |
| LSESPVDFEKFETFLVD [SIN4] | 2.76 ± 0.21 |
| LSFTPTTVIGIRGSDQA [RPN2] | 1.59 ± 0.062 |
| LSGSISERIVDCIIRLP [FAS1] | 1.85 ± 0.046 |
| LSHENNVMLEKIKDNKE [RPT5] | 2.71 ± 0.045 |
| LSHYIRQCFQDNCCDFK [MED1] | 2.83 ± 0.032 |
| LSILKGDYSQATVLSRK [RPN5] | 2.72 ± 0.056 |
| LSKFFFFIFVFNFVLLG [COB] | 1.22 ± 0.15 |
| LSKLCVPVANQFINLAG [QCR7] | 1.94 ± 0.033 |
| LSLTTVPCDRIEKSRLF [SNF6] | 2.29 ± 0.044 |
| LSQPVSASKHEYSDNFP [SIR4] | 2.89 ± 0.046 |
| LSQQQKDAQKKDIEKLT [YIL149C/MLP2] | 2.97 ± 0.075 |
| LSRAEYDSDSDSSVEDS [LIN1] | 3.16 ± 0.084 |
| LSRGDDEVTIRRTVGLK [SMC3] | 2.55 ± 0.063 |
| LSSIAERVRNFAVIYLC [DIB1] | 1.88 ± 0.12 |
| LSSMRFKPSQEPEFHAL [RRI1] | 2.42 ± 0.04 |
| LSTDATSADLKSKAEEL [UBP6] | 3.11 ± 0.21 |
| LSTSAFMEIVLEYNVAL [YML031W/NDC1] | 2.12 ± 0.067 |

| Sequence | protein stability index |
| --- | --- |
| LTADYDALDIANRIGYI [RPL25] | 3.43 ± 0.052 |
| LTEQIRELREVIELPLK [RPT4] | 3.06 ± 0.087 |
| LTGEWSTKFDYPPMPFD [FAS1] | 2.94 ± 0.037 |
| LTGTVVSTKMHRTIVIR [RPS11A] | 1.87 ± 0.037 |
| LTLTDSQLAQVAAFVNN [BRR2] | 2.69 ± 0.061 |
| LTNQQPKNLSTPSTSSN [CSE2] | 2.79 ± 0.059 |
| LTRFSHDADLEVSMNSI [RPN1] | 3.1 ± 0.037 |
| LTSPAFGPHVDVNDVLT [GRR1] | 3.27 ± 0.056 |
| LTTFANQVMMDRKIQGW [ARP7] | 2.65 ± 0.049 |
| LTTQFVTDKYTAKKTNR [YDL088C/ASM4] | 2.8 ± 0.11 |
| LTVENKLQFETDRLSTT [SMC1] | 2.94 ± 0.044 |
| LVDLKKELAELKVQKLS [RPL35A] | 1.68 ± 0.085 |
| LVESVDRFKPNLDIAKD [MED4] | 2.9 ± 0.15 |
| LVHGIFGAKMSRTLILS [SIN4] | 1.65 ± 0.039 |
| LVILKPDLNIDRNNSTN [SIN4] | 2.67 ± 0.041 |
| LVKDRKFLREVFVDGEA [RPO21] | 2.85 ± 0.21 |
| LVKIDDLSANQRETMKE [SMC1] | 3.45 ± 0.089 |
| LVQQIQKETQKVTKIWS [PRP28] | 2.26 ± 0.047 |
